Laboratory results taken from publication PMC10583366, “OsCBL1 modulates rice nitrogen use efficiency via negative regulation of OsNRT2.2 by OsCCA1”.

B1: P7 (dsDNA)
DNA 1: ATATGATGTGTATGGGAATTGGGATGCTGAAAACAAATGCAACTGGACACATATCTGCAACTTGTAAATAACTTTTATTTCTTTTAATGGAAAAAATGTG
DNA 2: CACATTTTTTCCATTAAAAGAAATAAAAGTTATTTACAAGTTGCAGATATGTGTCCAGTTGCATTTGTTTTCAGCATCCCAATTCCCATACACATCATAT
B2: P8 (dsDNA)
DNA 1: CTTCAGGCCGTCATGAAAAAAAACCAGTGCATATCTCATGGCAAGAAGAAGTGCAGGTTGTGAA
DNA 2: TTCACAACCTGCACTTCTTCTTGCCATGAGATATGCACTGGTTTTTTTTCATGACGGCCTGAAG
B3: P6 (dsDNA)
DNA 1: TAAAAAATACCTGCAGGTGCTCTAGTTCAACTGAAGGGCCAGATTTAGCAATATCTGAGTCCTTCAAATAAATTCATCAACTAACAAACTTCAACCGAAG
DNA 2: CTTCGGTTGAAGTTTGTTAGTTGATGAATTTATTTGAAGGACTCAGATATTGCTAAATCTGGCCCTTCAGTTGAACTAGAGCACCTGCAGGTATTTTTTA

What follows are binders tested against OsCCA1 (His-OsCCA1; Nhd1) (Oryza sativa, UniProt A0A0P0XBU0 1-719) (assay: EMSA; 10 mM Tris-HCl pH 7.5, 50 mM KCl, 1 mM DTT, 4 C, 40 min; 4% TBE-PAGE at 4 C, ethidium bromide stain). Details: protein: recombinant; tags: His (pET-28a); ATATCT (motif).
OsCCA1 (His-OsCCA1; Nhd1), sequence (A0A0P0XBU0 whole entry): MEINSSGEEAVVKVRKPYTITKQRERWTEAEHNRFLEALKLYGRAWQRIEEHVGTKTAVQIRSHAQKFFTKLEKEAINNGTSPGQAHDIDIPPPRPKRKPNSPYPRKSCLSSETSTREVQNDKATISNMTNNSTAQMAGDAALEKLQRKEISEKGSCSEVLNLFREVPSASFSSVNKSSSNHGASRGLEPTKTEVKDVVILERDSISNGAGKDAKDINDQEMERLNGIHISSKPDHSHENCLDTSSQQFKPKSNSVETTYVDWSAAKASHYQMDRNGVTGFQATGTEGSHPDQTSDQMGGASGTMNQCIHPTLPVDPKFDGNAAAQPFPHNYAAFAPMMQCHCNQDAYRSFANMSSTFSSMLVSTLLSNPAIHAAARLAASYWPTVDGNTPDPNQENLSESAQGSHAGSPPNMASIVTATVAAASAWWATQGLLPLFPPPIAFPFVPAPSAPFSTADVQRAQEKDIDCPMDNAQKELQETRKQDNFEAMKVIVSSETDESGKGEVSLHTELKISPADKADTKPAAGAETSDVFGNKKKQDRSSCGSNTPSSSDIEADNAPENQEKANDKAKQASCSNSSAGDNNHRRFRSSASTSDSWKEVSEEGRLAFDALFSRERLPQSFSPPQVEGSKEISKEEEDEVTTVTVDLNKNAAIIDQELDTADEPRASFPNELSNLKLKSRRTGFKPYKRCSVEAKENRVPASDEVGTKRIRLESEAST
B1: binds.
B2: binds.
B3: binds.
